Laboratory results from the supplement of paper PMC9170038.

What was measured:
[1] = tested on: MS2 coat protein; test: apparent KD of MS2 coat protein, switch ON state; designed switch direction (-1 OFF switch, 1 ON switch): -1; higher = weaker reporter binding; details: FMN input: 0 or 200 uM; Eterna round: R93 (includes R88 designs)
Summary of the method: (§1)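 Apparent KD was obtained for each design as the median of normalised binding-curve fits over its clusters. RNA switches transcribed on-chip from Illumina sequencing clusters were titrated with SNAP-549-labelled MS2 coat protein (twofold steps, 0.7 or 1.5 nM to 3 µM) in 100 mM Tris-HCl pH 7.5, 80 mM KCl, 4 mM MgCl2, without or with constant ligand.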

[2] = tested on: MS2 coat protein; test: apparent KD of MS2 coat protein, switch OFF state (with FMN for OFF switches, without FMN for ON switches); designed switch direction (-1 OFF switch, 1 ON switch): -1; higher = weaker reporter binding; details: FMN input: 0 or 200 uM; Eterna round: R93 (includes R88 designs)
Summary of the method: as §1

Sequence	apparent KD of MS2 coat protein [1]	apparent KD of MS2 coat protein [2]
AAGUACUCAGGAUAUACAUGAGGAUCACCCAUGUGAUAAAAGCGUAAAAAACGCACAUGUAGAAGGGAGUACAA [JL In thr Red Again 2]	140 nM	84 nM
AAGUUGUCAGGAUAUGCUUGUCGUCACAAAAGUGAUGACGAGCAGAAGGGACAUGAGGAUCACCCAUGUAAAGA [JL eternac mod 2]	65.8 nM	117 nM
AAUAAAGCAGGAUAUACUAAAGAAAUGAAAAGAAAUAAAGAACAUGAGGAUCACCCAUGUAGAAGGGCUAAUAA [Semqen]	42.8 nM	18.4 nM
AAUAACCGAGGAUAUACAAAACCUGUGAUCUAGUGGAUUUUACAUGAGGAUCACCCAUGUAGAAGGCGGACAAG [Atdiiste]	49.9 nM	183 nM
AAUAACUCAGGAUAUACUAAAGAAAUGAAAAGAAAUAAAGAACAUGAGGAUCACCCAUGUAGAAGGGAGAAUAA [Wazad]	94.2 nM	55.1 nM
AAUAAGAGAGGAUAUACUAAAGAAAUGAAAAGGGAUAAAGAACAUGAGGAUCACCCAUGUAGAAGGCUCAAUAA [Khyan]	24.3 nM	40.3 nM
AAUAAGUCAGGAUAUACUAAAGAAAUGAAAAGAAAUAAAGAACAUGAGGAUCACCCAUGUAGAAGGGACAAUAA [Anati Djedkare]	100 nM	53.6 nM
AAUAAGUGAGGAUAUCCAAAUAGUAGAUAAGAUUCCCUAAAGGAGAAGGCACAUGAGGAUCACCCAUGUAAAUA [JR_Exc004_Sub006]	36.1 nM	31.5 nM
ACAGUUACAGGAUAUACAUGGGAAAAUAAAAAUAAAAAACUACAUGAGGAUCACCCAUGUAGAAGGGUAACUGA [Ex2 Design 198: Random 13]	77.5 nM	26.6 nM
ACCAAUGCAGGAUAUACAUGAGGAUCACCCAUGUAUAACCUACAUAGAUGAUAAAAAUGUAGAAGGGCAUUGGA [EX3 232: Super Stable 32]	16 nM	20.3 nM
ACCUGACAUGAGGAUCACCCAUGUCAGGAUAUGUACAUCAGGAAAAAAAAACUGAUGUACAGAAGGGACAAGGG [Design 6: Super Stable - A-U mutation 2]	17.8 nM	13.7 nM
ACGUACUGAGGAUAUACGAACAUGUCAAAAGACGUGAAGGGACAUGAGGAUCACCCAUGUAGAAGGCAGUACGA [Mat - Exclusion 2 - JL mod - D7]	60.7 nM	172 nM
ACGUGACAUGAGGAUCACCCAUGUUAGGAUAUGCGAAUUCAAAAUCAGCUAACGCUGAGCAGAAGGAACAUGGU [Esriange]	36.2 nM	88.9 nM
ACUUAGACAGGAUAUACGUGAGUGGAAAAAGUGUUUCCACUACAUGAGGAUCACCCAUGUAGAAGGGUCUAAGA [Ex2 Design 181: Random 6B]	48.8 nM	82.3 nM
AGAAAACAUGAGGAUCACCCAUGUAAGGAUAUGCUGAAAAACACGGAAAAAACGUGCAGCAGAAGGUACAAAAA [Mat - Exclusion 1 - Eli mod - D97]	17.8 nM	38.6 nM
AGAAAACAUGAGGAUCACCCAUGUCAGGAUAUCGAUGUCCAAAAAAAAGUGCGGGACUCGAGAAGGGACUUGGG [Mod of Erbelaed v.2 (favor state 2,lowered kcal by 2.7)]	27.2 nM	24.6 nM
AGAAAACAUGAGGAUCACCCAUGUGAGGAUAUCGAUGUCCAAAAAAAAGUGCGGACCUCGAGAAGGCACAUUGG [Mod of Erbelaed v.3 (favor state 2,lowered kcal by 1)]	49.5 nM	51.1 nM
AGAAAACAUGAGGAUCACCCAUGUGAGGAUAUGCAAAUAUAUACGAAAGAUUAUAAAAGCAGAAGGCACAAAAG [Meechl MS2 Ex1]	35.8 nM	57.7 nM
AGAAACCUAGGAUAUACAUGAGGAUCACCCAUGUAAAGAAAGAAGGGAGCCACAAGAAGUAGAAGGAGGAAGAA [JR_Exc003_Sub005]	16.9 nM	33.4 nM
AGAAAGUCAGGAUAUACGAAUAAGAAAAAAGACGAGAACGGACAUGAGGAUCACCCAUGUAGAAGGGACAAGAA [Diamond 15]	91.2 nM	40.6 nM
AGAGGACAUGAGGAUCACCCAUGUGAGGAUAUGCACAACUAAGGACAAGAUCGCUAUAGCAGAAGGCACGUACU [JR_EXc001_Sub809]	39.3 nM	33.8 nM
AGAUAGUCAGGAUAUACGAAAAUGUAAAAAGAAGUGAAGGGACAUGAGGAUCACCCAUGUAGAAGGGACUAGAA [74%, Web mod - With 5 less C's]	100 nM	86.6 nM

Sequence	apparent KD of MS2 coat protein [1]	apparent KD of MS2 coat protein [2]
AGCAAGUAAGGAUAUGCGAAGUCAGGACACACACUGACAAAGCAGAAGGUACAUGAGGAUCACCCAUGUAAGCA [Mat - Exaclusion 4 - Eli mod - D62]	21.8 nM	14.9 nM
AGCUAGUCAGGAUAUACGAACAAGACAAAAGACGAGAACGGACAUGAGGAUCACCCAUGUAGAAGGGACUAGCA [Diamond 8]	25.7 nM	28.8 nM
AGCUAGUCAGGAUAUACGAACAUGUCAAAAGACGUGAAAGAACAUGAGGAUCACCCAUGUAGAAGGGACUAGCA [Mat - Exclusion 2 - JL-Eli mod - D48]	19.4 nM	18 nM
AGCUAGUCAGGAUAUACGAACAUGUCAGAAGACGUGAAGGGACAUGAGGAUCACCCAUGUAGAAGGGACUAGCA [74%, Web mod - With 1 more G's]	31.9 nM	102 nM
AGCUAGUGAGGAUAUACGAAUCUGUCAAAAGACGGAAGGGAACAUGAGGAUCACCCAUGUAGAAGGCACUAGCA [Web Mod 74% 6]	31.9 nM	23.2 nM
AGGAAACAUGAGGAUCACCCAUGUGAGGAUAUACAAAAGAAAAGAAAAGAAAGAAGAAGUAGAAGGUACAAGAA [Djedkare Isesi]	21.7 nM	24.7 nM
AGGAAACAUGAGGAUCACCCAUGUGAGGAUAUUCAAAAGAAAAGAAAAGAAAGAAGAAGAAGAAGGUACAAGAA [Neferefre]	28.3 nM	29.9 nM
AGGCAGACAGGAUAUACUUGGGCAGCCAGUAUGGUAAUAUAACAUGAGGAUCACCCAUGUAGAAGGGUCAGAAA [JR_Exc002_Sub210]	94.3 nM	88.4 nM
AGGCGGGUAGGAUAUGCGUACUGACGGGAAAACUGAAUGGUACAUGAGGAUCACCCAUGUAGAAGGGCUCUGAA [Dora Explored 23 - Jieux - Exclusion 2]	67.1 nM	111 nM
AGGGAGUGAGGAUAUACGAAAUAAAAAGAAGGAAAAAAAGAGUAGAAGGCACAUGAGGAUCACCCAUGUGAGAA [milkweed 12]	20.7 nM	20.6 nM
AGGGUACAUGAGGAUCACCCAUGUUAGGAUAUACAAAAGAAAAGAAAAGAAAGAAGAAGUAGAAGGGACAAGAA [Teti]	45.5 nM	59.1 nM
AGGUAGUCAGGAUAUGCGUGAAGAAUAAAACAAAUAACAACGCAGAAGGGACAUGAGGAUCACCCAUGUUAAGA [May 48]	36.1 nM	31.7 nM
AGGUUGUCAGGAUAUGCGUGAAGAAUAAAACAAAUAACAACGCAGAAGGGACAUGAGGAUCACCCAUGUAACCA [May 53]	35.6 nM	27.2 nM
AGUCGGCGAGGAUAUACAUGAGGAUCACCCAUGUGAGAGAAAAAAGUGAGUCAGAAAAGUAGAAGGCGCUGACA [JL Lego Mod 4]	63.4 nM	41.6 nM
AGUGAGUCAGGAUAUUAGUGAAGAAUAAAAGAAAUAACAACUAAGAAGGGACAUGAGGAUCACCCAUGUACACA [May 58]	26 nM	20.9 nM
AGUUGGCGAGGAUAUACAUGAGGAUCACCCAUGUAAAAUAAAUAAAAAAUAAAAGGGAGUAGAAGGCGCUGACA [73%, Moding Norbert Elias, 16]	41.9 nM	53.4 nM
AGUUGGCGAGGAUAUACAUGAGGAUCACCCAUGUGAGAGAAAAAAGUGAAAAAGAAAAGUAGAAGGCGCUGACA [73%, Moding Norbert Elias, 3]	47.9 nM	195 nM
AGUUGGCGAGGAUAUACAUGAGGAUCACCCAUGUGAGAGAAAAAAGUGAGAAAGAAAAGUAGAAGGCGCUGACU [salish99-ex3-06]	46.4 nM	307 nM
AGUUGGCGAGGAUAUACAUGAGGAUCACCCAUGUGAGAGAAAUAAGUGAGAAAGAAAAGUAGAAGGCGCUAACA [JL Lego Mod 18]	53.5 nM	164 nM
AGUUGGCGAGGAUAUACAUGAGGAUCACCCAUGUGAGAGUAAGAAGUGAGAAAGAGAAGUAGAAGGCGCUGACA [Ruby 55]	46.5 nM	220 nM
AUAAACAGAGGAUAUACGCGGAUUAUUGAAAUUAUUGAUUCACAUGAGGAUCACCCAUGUAGAAGGCUGGAAAA [LROPPY Exclusion 2 - v04_doubled Us]	35.7 nM	124 nM
AUAAACGGAGGAUAUACAUGAGGAUCACCCAUGUAAAUAAAUAGGAGAGCCACAAUAAGUAGAAGGUCGAAUAA [JR_Exc003_Sub010]	35.6 nM	32.4 nM
